A short description of the data set: label from the status in PepcDB records.
Take “MAAKRLAVLCIFLLPNTQFRQLRLAETAEELPQLLREAEKASWTYLEFLESITRYELAKREAKSLEKRMKWARFPFVKSLDEFELRGQNVLTARQLSQLRELSWLEQQYNLILLGPPGIGKTYIAIGLGLEAVYRGFHVYFATMGELVQLLKSEEYLNKSKVQLKRIRNADLVIIDDLMYMAMDQREANLFFHLINHLYERSSIILTSNKSPEEWGHLIGDQGITTAILDRLLHRVEVIHGGENEESHRMKNRKSIFSAEVLEHHHHHH”: the protein production result is given as “failed”. Next, “MAALWAAEAALTPGEVQAELASDLARTTVTTILSRLYDKGVVDRRGVAMVTTPCRTPRGSPPGACIPSSTVTLTGRPSWPASSPSSIRTTNSFCASYWRPTRDDRPLLIPLLLPFVMPLLARRALDRLAPATALWALTAAALVLAGACVTALGALVLTGLLKLPAFAALGELAHPLRTPTGYLVLPAAAIATGLLTIGAWTLAHSALRQTRAFRTARAEADRRPTAGDLCVVDSPHPDAYALPGRPHRIVVTTAMLRSLKPDERDALFAHERAHNQGATTASWSIGSAACRPGRMVSYLGACGARRAGPMRGRRGPRAIPVVCRPVPRSCRGRIVGVSLPSARW”: “failed”; “MAANGVSSGACAVSEEEARSEAERLLADPRLHVSDRHRAFLRYIVDARFEGRSDTIKAYSIAIDVFKRPASFDPSSDPIVRIEATRLRESLQKYYAQLADEPGARLDIPRGRYVPVFVERDNPPCPEEDGELEDVGLPTEEPTQAASRPEGRNWRHAIMGGAALAAVSLTGSLAYLAASAAHLNTQKPFVALSINASQNDKAAGEAVMEDLAVSLARFGTVRLKSGASGSRVPSDAMEQSLYEINMRYAENESSVSLWWQVSDAANGEAVWTDEERRPVAAGSREEAMRDLVFAVSRRLARPAGIINTIELRRNLPSSTIGNVCVLRGEFAVEQRDAAGLEAARSCLAATIASDPTDADAMATLARVYVWIGRATGDDSYFGRGLELANRAATLSPSSPRAALAQLGVQYQLGQNEISIAAGRRGVALNPENADLLAKLSMVVFLTGHWDEGVQLARQATEIAGQPIRDASFVMILNDYRQERYAQAVFLARQVPAPDAPTTVLKLAAIARLGDRPVTQQEIAAARLQHPDLERTVTAMFSGARYDSNLRDALRAGILEAGLKMPELASNGAM”: “failed”. In the case of “MAANNRRMSGKKGAQVGSGGKRRRGLEGKGPTPPAEMRKGHAKQRAANAKARRTTGGRPQQRRGGGRSTSELVVGRNPVYEALREGVPASTLYVQQFIDNDERVREALQLAAERGGINLMEAPRPELDRMTNGLNHQGLVLQVPPYEYAHPEDLVAAAHDEGIDPLIVALDGVTDPRNLGAVVRSVSAFGGHGVVVPERRAAGMTAGAWKTSAGTAARTPVARATNLTRALEQYQKAGITVVGLAADGEAELGDLAALDGPVVIVVGSEGKGLSRLVGETCDFRVRIPMPGGAESLNAGVAAGIVLYEAARRRS” it was “failed”; in that of “MAANNRSDHGSDENTRLYNPYQNYEVPINKSQYLYKLPTSPEFLFTEEALRQRRSWGENLTFYTGTAYLGGSVAGASVGVITGVKSFESGDTTKLKINRILNSSGQTGRTWGNRIGIIGLVYAGIESGIVAATDRDDVWTSVVAGLGTGAVCRAARGVRSAAVAGALGGLAAGAVVAGKQIVKRYVPI”, “failed”. With “MAANSNSRVASNHTSKKQKVRRNIHPFTNNTRIKRASKIVKFNDSGEGDHVSDQRSNKENVLTYKSLKSRASDLLKMRETLPVYQHKREIMSYIESNPVTVLIGETGSGKSTQIPQFVLEKLYDTKKHGSIAVTQPRRVAAINLATRVAQEHGCKLGEQVGYSVRFDNTTTTRTRLKYLTDGMLLRELMMNSDLREYSVIVIDEAHERTVLTDLILGFLKSLIQGPRPDLRIIVMSATLQAEKFSEFFNNAPILFVEGRKFDVKQYYLKAPTDDIVDAVIRCCIQINQGEELGDILCFLPGQEEIDKAVTIMEKIAKYVSDEAPVPLIVPYPLYAALPAVQQSLVFAPIKGFKRKVVFSTNIAETSVTISGVKFVVDSGLRKVKVWRHQLGLATLLTVPISQASAMQRSGRAGRESEGKSFRLYCESDYVKLPKQSEPEIARSDVTSPVLMLKRYGVDDLLNWTWFENPGKEAIVMGLQELYELGALDTRGKITKRGQQMALLPLQPHLSSVLIKASEVGCLSQVIDIVSCLSVENLLLNPSPEERDEVNERRLSLCNAGKRYGDLIMLKELFDIYFYELGKSQDASSERNDWCKGLCISIRGFKNVIRVRDQLRVYCKRLFSSISEEDEESKKIGEDGELISKILKCFLTGFIKNTAIGMPDRSYRTVSTGEPISIHPSSMLFMNKSCPGIMYTEYVFTTKGYARNVSRIELSWLQEVVTNAAAVAKQKVSDSK”, the protein production entry is “failed”. Turning to “MAAPVVVAPAINLQHMDLPEGNEDVAAVLQTSTQRWLNAAEWSILYNNHNLFPESNSFTIPIEVEGLYRVDNRFNQDSNTWRNTSAPSTCKNAINFYNVRIATGLYRFDDDGDIVMDAEVQGGWVLCRKTVRNRGGGVLTFAHYMWVLV”, the protein production entry was “failed”. For the sequence “MAARTLPDRFIARAPVPADAPAIARLIAACQEADGDEPDASAEEVLRDWEGLDLGQEAVLVVAPDGEAAAYADVLNRRYVQLSVYGYVHPRFRGMGLGTWLVQWGEEWIQDRMHLAPAEAQVTVQHYIRASSTSALRLMEQHGYRPVRDIWVMAITLDQPPPAPEWPEGITARTFVPGLDERATYEAVEEAFGDIWGRPPSTFERWLSMTQSERKDPELWLLAVETDSGHIVGTCLGQETAGKGWIGSVGVRRPWRGRGIALALLQEVFGVYYRRGVREVELSVDAESRTGAPRLYRRAGMHVKHRYVLHRKEIRPGIDLSTTAAHS”, the protein production entry is on record as “not failed”. Next, “MAASDSRNNRADEPGFVVQPKGEHRVIIVWLHDKDERSSDSLQFVEQLNLKNVKWICPSLVFPDSFIKGVGGLGMGAAVALHFATSCALNHYTINPRVVVGISGWLSNSGSLKRSIESASHGAPARAASQSIFITHGICKSNRLLFQCDSVPHPCDCGEEAVLSLREAGFRDVKFTPFARFGPTAHENNRNVMVKSWLEEKLQLDVTIP”: “failed”; “MAASSACLVGNGLSVNTTTKQRLSKHFSGRQTSFSSVIRTSKVNVVKASLDGKKKQEGRRDFLKILLGNAGVGLVASGKANADEQGVSSSRMSYSRFLEYLDKDRVNKVDLYENGTIAIVEAVSPELGNRVERVRVQLPGLSQELLQKLRAKNIDFAAHNAQEDQGSVLFNLIGNLAFPALLIGGLFLLSRRSGGGMGGPGGPGNPLQFGQSKAKFQMEPNTGVTFDDVAGVDEAKQDFMEVVEFLKKPERFTAVGAKIPKGVLLIGPPGTGKTLLAKAIAGEAGVPFFSISGSEFVEMFVGVGASRVRDLFKKAKENAPCIVFVDEIDAVGRQRGTGIGGGNDEREQTLNQLLTEMDGFEGNTGVIVVAATNRADILDSALLRPGRFDRQVSVDVPDVKGRTDILKVHAGNKKFDNDVSLEIIAMRTPGFSGADLANLLNEAAILAGRRARTSISSKEIDDSIDRIVAGMEGTVMTDGKSKSLVAYHEVGHAVCGTLTPGHDAVQKVTLIPRGQARGLTWFIPSDDPTLISKQQLFARIVGGLGGRAAEEIIFGDSEVTTGAVGDLQQITGLARQMVTTFGMSDIGPWSLMDSSAQSDVIMRMMARNSMSEKLAEDIDSAVKKLSDSAYEIALSHIKNNREAMDKLVEVLLEKETIGGDEFRAILSEFTEIPPENRVPSSTTTTPASAPTPAAV”: “not failed”. Turning to “MAATGVDKDRPRAMTSTTYLGLLLVGIQVLGFVAAIHAVLTVRTAQGAIAWATSLVFMPYLTLLPYLVFGRSRFDAYIEARRQANREMHLAAAELDWRPWVEEALAARQVSGYKGLKALVRMTRTPTLANNRVRLLVNGEASFEAMFKAISAARQVILVQFFIVRDDALGQRLQQLLLERAANGVEVFFLYDAIGSHALPHRYVERLRQGGVQMHGFSTGSGMLNRFQVNFRNHRKVVVVDGECGFVGGHNVGVEYLGEKPPLAPWRDTHMELRGPAVACLQESFAEDWYWATHSLPPLILPPQYDSEGALCQVVASGPADAQETCSLFFVEMINAAHERVWITSPYFVPDEAVMAALRLAVLRGVDVRLLIPSRPDHRTVYAASSLYALEAIRAGVKVFRYQPGFLHQKVVLVDRDTAAVGSANLDNRSFRLNFEVMVVTVDEGFAGEVEAMLEADFAESLEFTPEDRRSVRRLQQLGMRVARLVSPIL”, the protein production entry is on record as “failed”. In the case of “MAAYGLYTHIASNKLRSMLLLAGLFALVYVLVYAGALVAEVVINGNETVAFYLSHAFLDLKVAAPVATVVTAVWVVIAYFFHQSMIDAVTGGHDVTRKEEPRLYNLLENLCISRGITMPKLKIMESPALNAFATGLNPRQYSITVTTGLLNALNDKEIEAVLGHELTHIKNGDVQLMVVAVIIAGVVGFFGELFFRLFTNLSWNSGGSWSSGSSSSRSSSSSSDSKNSGGGAVIVIIIAVVLIVVAWLMSQVVKLALSRSREYLADAGSVELTKDPDAMISALRKIENRGELPGATSAVMELCVDNPREGFADLFATHPSVQSRVDALVKFAGGHDPGPLPDPTDETEQPEAQGAPQDAPPPLSQRPWGDAAGPANPPPVPAPSPSGTTAGNPIGNPMGPWGRH” it was “failed”. As for “MACIHIESSHPPAWKTHSVQENKPANADDISNTTLPEHHDGGDGGIQETWAAIGDSGGRGGGYFAGESRKKLEKKKSQVLLEGYALDDQDDLTRAKSLTDDDLEELKGCLDLGFGFSYDEIPELCNTLPALELCYSMSQKFLDDKQQNHHKSQEEDDSSPPPTTTAPIANWKISSPAELESIFIFEPEKDRLCKNEVSAIVR”, the protein production result is given as “failed”. In the case of “MACNTCKMCESADKKLESFVASKDVETAFHRTEDQKVKCGFGLQGVCCRLCSNGPCRVTPKSPRGICGADADTIVARNFLRAVASGAACYLHVVENTAKNLKNVGITKGVVKGEKTLNQLAEMFGIESDEKYDKCIKVADKVINDLYKSRDDKMELVEKIAYAPRVKKWKELGIMPGGAKSEVFDAIVKSSTNLNSDPVDMLVNCLNLGISTGLYGLTLTNLLNDVMLGEPVIRMAPVGFNVIDPDYINIMITGHQHSTFANFQDRLKDEDVIKLAQSVGAKGFKLVGCTCVGQDLQLRGEHYQEVFAGHAGNNFTSEAVLSTGAIDIVLSEFNCTIPGLEPIADKYKVKMVCLDDVAKKANAEYIGLDRSKLDELSNTLIEKALESYKERRGSIEIDIPKDHGFEQSLTGVSEKNLKAFLGDSWKPLINLIAEGKIKGVAAVVGCSNMTAGGHDVNTVELTKELIKKDIIVLSAGCSTGGLENVGLMSPGAEELAGENLKEVCKTLGIPPVLNFGPCLAIGRLEIVATELAAELGIDLPQLPLVLSAPQWLEEQALADGAFGLALGLPLHLALPPFITGGKLVTEVLTEKLKDLTGGHVIVNPDPKSSANQLEEIIIDRRKNLGLKDVECNA” it was “failed”; in that of “MADERYNRKNPAVKRILQEVKEMQANPSDDFMSLPLEENIFEWQFAIRGPGDTEFEGGIYHGRIQLPADYPFKPPSFMLLTPNGRFETNTKICLSISNYHPEHWQPSWSVRTALVALIAFMPTSPNGALGSVDYPKDERRTLAIKSRETPPKYGSPERQKIIDEIHQYILSKATVVPKPLPLECSQAPSIVSEAHSQVEPQEAITVVEERSIATTDTIVDDQIIEETAEAVNTAASVVPAAAPLPAVEVVVKASVSGEQRMARRAAQKPVDDRLFTWAAVGLTIAIMVLLLKKFIKSNGYSTGFMDDQS”, “failed”.

Consider “MADFQGETEMTAEVFDPRALRDAFGAFATGVTVVTASDAAGKPIGFTANSFTSVSLDPPLLLVCLAKSSRNYESMTSAGRFAINVLSETQKDVSNTFARPVEDRFAAVDWRLGRDGCPIFSDVAAWFECSMQDIIEAGDHVIIIGRVTAFENSGLNGLGYARGGYFTPRLAGKAVSAAVEGEIRLGAVLEQQGAVFLAGNETLSLPNCTVEGGDPARTLAAYLEQLTGLNVTIGFLYSVYEDKSDGRQNIVYHALASDGAPRQGRFLRPAELAAAKFSSSATADIINRFVLESSIGNFGIYFGDETGGTVHPIANKDAHS”, for which the protein production entry is “not failed”.

For the sequence “MADIDQASKTEMEAAAFRHLLRHLDEHKDVQNIDLMIQADFCRNCLAKWLMEAATEQGVELDYDGAREYVYGMPFAEWKTLYQKPASEAQLAAFEAKQAARKR”, the protein production entry is given as “not failed”.

(Values after a protein production outcome set (Wang et al. 2014).)
